Experimental data: publication doi:10.1101/644955

Molecular target: FLAG-tagged rainbow trout IL-2 (IL-2A), expressed in insect cells (rainbow trout (Oncorhynchus mykiss))
Test: SEC

- stoichiometry N: 2
Substance: FLAG-tagged rainbow trout IL-2 (IL-2A), expressed in insect cells (ligand)
